From publication PMC3118927
Where two headings read alike, the source gives them in different places.

Columns and labels:
Assay in all cases: EMSA
[1] = biological target: T1, Exd (Extradenticle);Ubx (Drosophila melanogaster?;Drosophila …, UniProt P40427;P83949 1-376;56-389, |)
[2] = biological target: T1, Exd (Extradenticle);Ubx; remark: listed apart in the source
[3] = biological target: T1, Exd (Extradenticle);Ubx; remark: listed apart in the source

T1 sequence (P40427 whole entry, chain 1 of 2): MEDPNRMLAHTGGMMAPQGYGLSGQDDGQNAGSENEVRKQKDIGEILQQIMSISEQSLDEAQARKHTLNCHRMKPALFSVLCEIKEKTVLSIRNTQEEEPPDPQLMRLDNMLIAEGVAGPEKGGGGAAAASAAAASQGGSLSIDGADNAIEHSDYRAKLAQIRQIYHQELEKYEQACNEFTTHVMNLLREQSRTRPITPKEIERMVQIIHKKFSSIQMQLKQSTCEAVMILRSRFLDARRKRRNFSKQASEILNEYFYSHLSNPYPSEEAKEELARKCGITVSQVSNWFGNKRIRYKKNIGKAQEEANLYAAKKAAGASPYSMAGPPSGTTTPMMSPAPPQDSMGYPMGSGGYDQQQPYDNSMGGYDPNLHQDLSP
T1 sequence (P83949 56-389, chain 2 of 2): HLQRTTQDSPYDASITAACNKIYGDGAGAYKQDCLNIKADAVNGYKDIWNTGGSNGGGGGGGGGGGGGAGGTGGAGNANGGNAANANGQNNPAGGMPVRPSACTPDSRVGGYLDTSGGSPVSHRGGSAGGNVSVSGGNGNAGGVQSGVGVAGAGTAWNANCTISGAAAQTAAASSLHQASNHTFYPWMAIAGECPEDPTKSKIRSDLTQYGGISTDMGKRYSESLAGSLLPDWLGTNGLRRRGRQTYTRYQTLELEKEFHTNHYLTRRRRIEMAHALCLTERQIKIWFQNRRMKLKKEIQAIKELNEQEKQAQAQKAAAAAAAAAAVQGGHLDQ

B1: PrFHOX (dsDNA)
DNA 1: TGATGGCTTCCCTTATGATTTTTTGAATAATTTCTTTA
DNA 2: TATAAAGAAATTATTCAAAAAATCATAAGGGAAGCCAT
B1: no binding [1].

B2: PrFWT (dsDNA)
DNA 1: TGATGGCTTCCCTTATGATTTATTGAATAATTTCTTTA
DNA 2: TATAAAGAAATTATTCAATAAATCATAAGGGAAGCCAT
B2: binds [2].

B3: PrFEXD (dsDNA)
DNA 1: TGATGGCTTCCCTTATAGTTTATTGAATAATTTCTTTA
DNA 2: TATAAAGAAATTATTCAATAAACTATAAGGGAAGCCAT
B3: no binding [1].

B4: fkh[250con] (dsDNA)
DNA 1: GATCTCAATGTCAAGATTTATGGCCAGCTGTGGGACGA
DNA 2: CCTCGTCCCACAGCTGGCCATAAATCTTGACATTGAGA
B4: binds [3].
